Measurements reported in US8394929B2, “Nogo receptor-mediated blockade of axonal growth” (Yale University, priority 2000, dated 2013).

B1: GST-Nogo: GST fusion protein of the 66 amino acid lumenal-extracellular fragment of Nogo-A, expressed in E. coli (protein)
chain: RIYKGVIQAIQKSDEGHPFRAYLESEVAISEELVQKYSNSALGHVNCTIKELRRLFLVDDLVDSLK
modifications: also: GST fusion protein
notes: GST fusion protein of the 66 amino acid lumenal-extracellular fragment of Nogo-A, expressed in E. coli
B2: AP-Nogo: fusion protein of His6 tag, placental alkaline phosphatase (AP) and the 66 amino acid active domain of Nogo (protein)
chain: HHHHHHIIPVEEENPDFWNREAAEALGAAKKLQPAQTAAKNLIIFLGDGMGVSTVTAARILKGQKKDKLGPEIPLAMDRFPYVALSKTYNVDKHVPDSGATATAYLCGVKGNFQTIGLSAAARFNQCNTTRGNEVISVMNRAKKAGKSVGVVTTTRVQHASPAGTYAHTVNRNWYSDADVPASARQEGCQDIATQLISNMDIDVILGGGRKYMFRMGTPDPEYPDDYSQGGTRLDGKNLVQEWLAKRQGARYVWNRTELMQASLDPSVTHLMGLFEPGDMKYEIHRDSTLDPSLMEMTEAALRLLSRNPRGFFLFVEGGRIDHGHHESRAYRALTETIMFDDAIERAGQLTSEEDTLSLVTADHSHVFSFGGYPLRGSSIFGLAPGKARDRKAYTVLLYGNGPGYVLKDGARPDVTESESGSPEYRQQSAVPLDEETHAGEDVAVFARGPQAHLVHGVQEQTFIAHVMAFAACLEPYTACDLAPPAGTTDAAHPGRIYKGVIQAIQKSDEGHPFRAYLESEVAISEELVQKYSNSALGHVNCTIKELRRLFLVDDLVDSLK

Assays:
[1] = system: chick E7 retinal ganglion cells; experiment: Growth cone collapse in uninfected chick E7 retinal ganglion cells; assay type: cell-based; settings: neurons lacking the Nogo-66 receptor
Description: (§1) Both dorsal root ganglion and retinal neurons from E7 chick embryos were examined. The Nogo responses in the dorsal root ganglion neurons from this developmental stage are weak but slight responses can be detected in some cultures (data not shown).
For some receptor systems, such soluble receptor ligand complexes can block signaling by creating an ineffective interaction. For example, the soluble ectodomain of Trk serves to block neurotrophin signaling and has been extensively used for this purpose (Shelton et al., (1995) J. Neurosci. 15, 477-491). Alternatively, the Nogo-66/NgR-ecto soluble complex may bind to and stimulate the presumed second transmembrane NgR subunit. There is precedence for this type of effect from studies of GDNF family receptors (Cacalano et al., (1998) Neuron 21, 53-62).

wild-type NgR (wtNgR) = molecular target: T1, wild-type NgR (wtNgR) (Mus musculus, UniProt Q99PI8); experiment: Growth cone collapse in E7 retinal ganglion cells infected with HSV wild-type NgR; assay type: cell-based
T1 construct: expressed in transfected cells; host or cells: chick E7 retinal ganglion cell explants infected with recombinant HSV
T1 sequence (Q99PI8 27-447): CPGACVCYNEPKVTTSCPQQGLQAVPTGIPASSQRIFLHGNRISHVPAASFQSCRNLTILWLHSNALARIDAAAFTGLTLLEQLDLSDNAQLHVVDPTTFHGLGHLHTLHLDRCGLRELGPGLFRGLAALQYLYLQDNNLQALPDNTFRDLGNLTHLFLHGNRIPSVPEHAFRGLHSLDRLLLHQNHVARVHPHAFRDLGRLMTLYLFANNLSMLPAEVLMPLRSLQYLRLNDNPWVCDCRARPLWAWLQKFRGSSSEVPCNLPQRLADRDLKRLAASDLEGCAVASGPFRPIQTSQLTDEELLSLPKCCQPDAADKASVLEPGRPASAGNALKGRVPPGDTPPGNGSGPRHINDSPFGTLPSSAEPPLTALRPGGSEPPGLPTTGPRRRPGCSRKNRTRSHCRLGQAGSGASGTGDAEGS
Method: as §1
Because the mouse NgRCT domain was determined to be dispensable for hNogo-A (1055-1120) binding, the ability of NgRΔCT to mediate Nogo-dependent inhibition was examined. HSVNgR constructs transfected into HEK293T cells mediated the expression of mNgR proteins of the predicted molecular weight, as determined by SDS-PAGE and anti-Myc and anti-NgR immunoblotting (FIG. 19A). Day E7 chick retinal ganglion cells (RGCs) were grown for 12 hr, then further incubated for 24 hr with HSVNgR preparations. Explants were fixed with 4% paraformaldehyde with 0.1 M PO4 and 20% sucrose and stained with phalloidin or with anti-myc antibodies. HSVNgR protein expression was detected in axons of infected (RGC) cultures (FIG. 19B).
Growth cone collapse in response to GST-hNogo-A (1055-1120) was investigated in infected RGC cultures. Retinal explants infected with recombinant viral preparations of PlexinA1 (PlexA1), wild-type NgR (wtNgR), NgRL1 chimeric receptor in which the GPI domain has been replaced by the transmembrane region and cytoplasmic tail from the mouse adhesion protein L1 (NgRL1), or NgR carboxy terminal deletion mutant (NgRΔCT) for 12 hr. […]

mNgR deletion mutants = experiment: AP-hNogo-A (1055-1120) binding to COS-7 cells transfected with other mNgR deletion mutants; parameters: species or system mouse
Description: The NgΔRNT construct encodes residues 58 to 473 of mNgR. The NgRANT construct was made by using the primers ΔLRR-NT5 (5′-[…]-3′) and NgR3X (5′-[…]-3′) to amplify a sequence from the wtNgR-pSecTag2Hygro plasmid. The amplified sequence was ligated into the XhoI/BamHI of pSecTag2.
The NgLRR-construct encodes residues 306 to 473 of mNgR. The NgLRR construct was made by using the primers, MycNgR305 (5′-[…]-3′) and NgR3X (above) to amplify a sequence from the from the wtNgR-pSecTag2Hygro plasmid. The amplified sequence was ligated into the XhoI/BamHI of pSecTag2.
The mNgR LLR deletions and NgRΔLRRCT deletion mutants were generated using ExSite™ PCR-based site-directed mutagenesis kit (Stratagene, La Jolla, Calif.). Generally, the primers described below were used to amplify a sequence from the wtNgR pSecTag2 plasmid. The ends of the amplified products were ligated together. The resulting constructs were transfected into COS-7 cells.
The NgRΔ1-2 construct encodes residues 1 to 56 and residues 106 to 473 of mNgR. The primers used for making the NgRΔ1-2 construct were DEL LRR (5′PO4) (5′-[…]-3′) and DEL LRR2 (5′-[…]-3′). […]
To determine whether mNgR or mNgR deletion mutants bound to hNogo-A (1055-1120), wtNgR or mNgR deletion mutants were transfected into COS-7 cells. […] AP-fusion protein was detected as previously described for AP-Sema3A (Takahashi et al., Nature Neurosci. 1:487-493, 1998).

Molecule | growth cone collapse (in words) [1] | growth cone collapse response (in words) (wild-type NgR (wtNgR); listed as GST-hNogo-A (1055-1120)) | growth cone collapse response (in words) (wild-type NgR (wtNgR); listed as Nogo-66) | binding (in words) (mNgR deletion mutants)
B1 | uniformly insensitive | underwent growth cone collapse | sensitive to Nogo-66-induced collapse | 
B2 |  |  |  | did not
